The values that follow come from patent publication US8624010 (Amgen, dated 2014).

Sequences and labels used below:
B1: B7.2 (ligand)
chain: VSVETQAYFNGTAYLPCPFTKAQNISLSELVVFWQDQQKLVLYEHYLGTEKLDSVNAKYLGRTSFDRNNWTLRLHNVQIKDMGSYDCFIQKKPPTGSIILQQTLTELSVIANFSEPEIKLAQNVTGNSGINLTCTSKQGHPKPKKMYFLITNSTNEYGDNMQISQDNVTELFSISNSLSLSFPDGVWHMTVVCVLETESMKISSKPLNFTQEFPSPQTYWK
notes: also called CD86; B7.2-Fc; not shown: The Fc part (detected with anti-human Fc) and any linker
B2: murine B7RP1 (B7 related protein-1), membrane-bound (ligand)
chain: ETEVGAMVGSNVVLSCIDPHRRHFNLSGLYVYWQIENPEVSVTYYLPYKSPGINVDSSYKNRGHLSLDSMKQGNFSLYLKNVTPQDTQEFTCRVFMNTATELVKILEEVVRLRVAANFSTPVISTSDSSNPGQERTYTCMSKNGYPEPNLYWINTTDNSLIDTALQNNTVYLNKLGLYDVISTLRLPWTSRGDVLCCVENVALHQNITSISQAESFTGNNTKNPQETHNNELKVLVPVLAVLAAAAFVSFIIYRRTRPHRSYTGPKTVQLELTDHA
notes: also called mB7RP1; ligand for CRP1

The target of test [1] is B2. Briefly: ACAS cell surface display assay, Fc fusion protein on transfected cells, FITC anti-human Fc detection. The procedure: (§1) Figure 5: FIG. 5. Interaction of CRP1-Fc and B7RP1-Fc fusion proteins with membrane-bound proteins expressed in COS-7 cells. COS-7 cells transiently transfected with pcDNA3/CRP1, pcDNA3/B7RP1, or pcDNA3 vector alone. CHO D-cells were transfected with psDRα/hCD28 and stably expressed human CD28 (hCD28). Cells expressing membrane-bound CRP1, B7RP1, or hCD28, are represented in rows as indicated at the left side of the panel. Fc fusion proteins were incubated with the plate-bound cells in columns as indicated at the top of the panel. After incubation, cells were washed, and bound Fc fusion proteins were detected using an anti-human Fc antibody and ACAS (Adherent Cell Analysis and Sorting; ACAS Ultima, Meridian Instruments, Inc., Okemos, Mich.) analysis. Figure 6A: FIG. 6. FACS (Fluorescence-Activated Cell Sorter) analysis of expression of the receptor for B7RP1 (putatively, CRP1) on activated CD4+ and CD8+ T-cells. Mouse splenocytes were activated with PMA and ionomycin for 12 hours. B7RP1-Fc fusion protein, control Fc protein (Mock-Fc), or PBS (no stain), were incubated with the cells, washed, and subsequently incubated with goat-anti-human Fc-FITC conjugated antibody(GaHuFc-FITC) as indicated at the bottom of each panel. […]

Test [2] has as its target T1, murine CRP1-Fc fusion protein (murine; human, UniProt P01857-1 96-330 = IgG part).
T1 construct: domain: carboxy terminal 235 amino acids of the human Fc gene (isotype IgG1); Made in 293T cells and purified on Protein A. The construct encodes residues 1-147; also called mCRP1-Fc
Briefly: flow cytometry on non-activated mouse splenocytes, double stain with CD45R-PE; detection with goat anti-human Fc-FITC; ligand on the cells is presumably B7RP1. Here is the method:
PE conjugated cell marker antibody to CD45R (CD45R is a B-cell marker) or isotype control antibody (rat isotype), or PBS (no stain), were added as indicated at the left side of each individual panel.
Activated spleen cells for immunostaining were washed in PBS, 0.5% BSA (Path-ocyte 4, ICN Pharmaceuticals) wash buffer, resuspended, and then aliquoted in 100 µl volumes. 15 µg/ml of either the CRP1-Fc fusion protein or the B7RP1-Fc fusion protein was added (1.5 µg/sample) as appropriate, and then the mixtures were incubated on ice for 30 min with occasional mixing. The cells were washed twice in 5.0 ml of wash buffer. Binding of the fusion proteins was visualized with 2 µg of goat-anti-human (GaHuFc-FITC) conjugated secondary antibody in a 100 µl volume for cell staining. Cell marker antibodies conjugated with PE were added with the GaHUFc-FITC, as well as control isotype-PE conjugated antibody controls where indicated (rat isotype). […]
The CRP1-Fc fusion protein was utilized to detect cells that expressed ligands to CRP1, presumably including the B7RP1 protein (see Example 8), by FACS analysis (FIG. 7). Splenocytes were prepared as in Example 8, except the 12 hr T-cell activation step was omitted and the cells were directly analyzed. […] Cells were detected that expressed both the CD45R B-cell marker and the putative ligands for CRP1, presumably including B7RP1 (Example 8).

The target in the test “B7.2” is B1. The experiment in a line: ACAS cell surface display assay, Fc fusion protein on transfected cells, FITC anti-human Fc detection. The procedure:
as §1

Test [3] has as its target T2, murine B7RP1-Fc fusion protein (murine; human, UniProt P01857-1 96-330 = IgG part).
T2 construct: domain: carboxy terminal 235 amino acids of the human Fc gene (isotype IgG1); Made in 293T cells and purified on Protein A. The construct encodes residues 1-269; also called mB7RP1-Fc; muB7RP1-Fc
The experiment in a line: flow cytometry on PMA/ionomycin-activated mouse splenocytes, lymphocyte gate; detection with goat anti-human Fc-FITC; no PE stain; receptor on the cells is putatively CRP1. Here is the method:
The B7RP1-Fc fusion protein was utilized to detect cells that expressed receptors to B7RP1, presumably including the CRP1 protein (see Example 6), by FACS analysis. Spleens were removed from female C57/Black 6 mice, ground on 100 micron mesh filters to release the lymphocytes, passed through 70 micron filters, and then washed in 50 ml of RPMI-1640. They were pelleted at 1500 rpm, resuspended in fresh RPMI, mixed to break up the clumping cells, and passed through a 40 micron filter. T-cells to be activated were seeded into 6 well plates in RPMI-1640, 5% FBS, 1×PSG, PMA, ionomycin, and incubated at 37° C., 5% CO2 overnight. T-cell activation was checked by visual confirmation after 12 hr.
Activated spleen cells for immunostaining were washed in PBS, 0.5% BSA (Path-ocyte 4, ICN Pharmaceuticals) wash buffer, resuspended, and then aliquoted in 100 µl volumes. 15 µg/ml of either the CRP1-Fc fusion protein or the B7RP1-Fc fusion protein was added (1.5 µg/sample) as appropriate, and then the mixtures were incubated on ice for 30 min with occasional mixing. The cells were washed twice in 5.0 ml of wash buffer. Binding of the fusion proteins was visualized with 2 µg of goat-anti-human (GaHuFc-FITC) conjugated secondary antibody in a 100 µl volume for cell staining. […]
A general note: A flow cytometer gives signals particle by particle.

Take B1: in test [1], the binding result is given as “no binding”. In the case of B2, in test [2], the binding result is “binds”.

B3: murine CRP1 (CD28 related protein-1), membrane-bound (receptor)
chain: EINGSADHRMFSFHNGGVQISCKYPETVQQLKMRLFREREVLCELTKTKGSGNAVSIKNPMLCLYHLSNNSVSFFLNNPDSSQGSYYFCSLSIFDPPPFQERNLSGGYLHIYESQLCCQLKLWLPVGCAAFVVVLLFGCILIIWFSKKKYGSSVHDPNSEYMFMAAVNTNKKSRLAGVTS
notes: also called mCRP1; receptor for B7RP1
B3: the binding result was “no binding” with B7.2 and “binds” in test [3].
